These results are taken from PMC7905918, “20E-mediated regulation of BmKr-h1 by BmKRP promotes oocyte maturation”.

What all share (details): protein: ivt; label: 5' biotin; blunt
The target in data set [1] is T1, BmKRP (Bombyx mori, UniProt A0A8R1WHU4 1-518).
T1 sequence: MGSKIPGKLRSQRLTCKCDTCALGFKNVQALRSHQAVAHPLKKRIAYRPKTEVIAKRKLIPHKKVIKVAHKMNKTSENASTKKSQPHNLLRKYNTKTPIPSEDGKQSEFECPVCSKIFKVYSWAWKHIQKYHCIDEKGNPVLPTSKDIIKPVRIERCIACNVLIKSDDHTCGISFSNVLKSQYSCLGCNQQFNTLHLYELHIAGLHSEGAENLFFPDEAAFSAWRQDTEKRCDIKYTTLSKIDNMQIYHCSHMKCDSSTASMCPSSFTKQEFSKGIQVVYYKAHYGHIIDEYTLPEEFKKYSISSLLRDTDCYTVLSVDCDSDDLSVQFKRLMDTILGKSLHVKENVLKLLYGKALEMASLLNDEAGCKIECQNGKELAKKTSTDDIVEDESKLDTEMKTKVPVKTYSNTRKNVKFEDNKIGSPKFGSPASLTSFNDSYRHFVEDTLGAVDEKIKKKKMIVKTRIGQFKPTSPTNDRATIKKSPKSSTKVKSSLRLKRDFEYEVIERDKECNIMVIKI
Nature of the data set: EMSA; EMSA: 1x binding buffer (LightShift kit), 2.5% glycerol, 0.05% NP-40, 50 mM KCl, 5 mM MgCl2, 4 mM EDTA, 1 ug poly dI-dC, 20 fmol probe, room temperature 20 min; pull-down: 10 mM HEPES pH 7.6, 100 mM K-glutamate, 80 mM KCl, 10 mM Mg acetate, 4 C.

In data set [2] the target is T1, BmKRP. Description: EMSA; Discussion calls it weaker (citing Fig. 3f); EMSA: 1x binding buffer (LightShift kit), 2.5% glycerol, 0.05% NP-40, 50 mM KCl, 5 mM MgCl2, 4 mM EDTA, 1 ug poly dI-dC, 20 fmol probe, room temperature 20 min; pull-down: 10 mM HEPES pH 7.6, 100 mM K-glutamate, 80 mM KCl, 10 mM Mg acetate, 4 C.
The target of data set [3] is T1, BmKRP. Nature of the data set: EMSA; competed by 50-fold unlabeled probe; EMSA: 1x binding buffer (LightShift kit), 2.5% glycerol, 0.05% NP-40, 50 mM KCl, 5 mM MgCl2, 4 mM EDTA, 1 ug poly dI-dC, 20 fmol probe, room temperature 20 min; pull-down: 10 mM HEPES pH 7.6, 100 mM K-glutamate, 80 mM KCl, 10 mM Mg acetate, 4 C.

B1: -248~-217 mutant probe 5 (both flanks mutated) (dsDNA)
DNA 1: GGCGGCCCACATCCGAAAACGACCGCCGACGG
DNA 2: CCGTCGGCGGTCGTTTTCGGATGTGGGCCGCC
B1: the binding result with BmKRP [1] is on record as “no binding”.

B2: -248~-217 mutant probe 7 (right flank mutated) (dsDNA)
DNA 1: TTATTAAAACATCCGAAAACGACCGCCGACGG
DNA 2: CCGTCGGCGGTCGTTTTCGGATGTTTTAATAA
Regarding B2, the binding result with BmKRP [2] is given as “binds”.

B3: -248~-217 mutant probe 6 (left flank mutated) (dsDNA)
DNA 1: GGCGGCCCACATCCGAAAACGCAATAATCATT
DNA 2: AATGATTATTGCGTTTTCGGATGTGGGCCGCC
As for B3, the binding result in the data set with BmKRP [2] is “binds”.

B4: BmKr-h1 20E CRE -248~-217 WT probe (dsDNA)
DNA 1: TTATTAAAACATCCGAAAACGCAATAATCATT
DNA 2: AATGATTATTGCGTTTTCGGATGTTTTAATAA
As for B4, the binding result with BmKRP [3] is reported as “binds”.

B5: -248~-217 mutant probe 4 (central … region mutated) (dsDNA)
DNA 1: TTATTAACCACGAATCCCCATAAATAATCATT
DNA 2: AATGATTATTTATGGGGATTCGTGGTTAATAA
In the case of B5, the binding result with BmKRP [1] was “binds”.
